Where no end group is shown, it is not given here.
B1: AM(37-52) D39W/Q50W (peptide)
peptide: DKWNVAPRSKISPWGY-NH2
notes: also called AM(37-52)NH2 [D39W, Q50W]
B2: AM(37-52)NH2[S45T, K46L, Q50W] (peptide)
peptide: DKDNVAPRTLISPWGY-NH2
B3: AM(37-52)NH2 [S45W, Q50W] (peptide)
peptide: DKDNVAPRWKISPWGY-NH2
notes: also called S45W/Q50W double mutant
B4: AM(37-52)NH2 [Q50W] (peptide)
peptide: DKDNVAPRSKISPWGY-NH2
B5: AM(37-52)NH2 [Q50F] (peptide)
peptide: DKDNVAPRSKISPFGY-NH2
B6: AM(37-52)NH2 [S45W, K46L, I47M, Q50W, Y52F] (peptide)
peptide: DKDNVAPRWLMSPWGF-NH2
B7: AM(37-52)NH2 [S45W, K46L, S48G, Q50W, Y52F] (peptide)
peptide: DKDNVAPRWLIGPWGF-NH2
B8: CGRP(27-37)NH2 [N31D, S34P, K35W, A36S] (peptide)
peptide: FVPTDVGPWSF-NH2
B9: CGRP(27-37)NH2 [N31D, V32T, S34P, K35W, A36G] (peptide)
peptide: FVPTDTGPWGF-NH2
B10: CGRP(27-37)NH2 [N31D, V32T, S34P, K35W, A36S] (peptide)
peptide: FVPTDTGPWSF-NH2
B11: AM(37-52)NH2 (peptide)
peptide: DKDNVAPRSKISPQGY-NH2

Legend:
[1] = molecular target: MBP-RAMP2 ECD [L106R]-(GS)5-CLR ECD-H6 fusion protein (human) (UniProt O60895); test: FP (anisotropy) competition: displaces FITC-Ahx-AM(37-52)NH2[S45W,Q50W] probe (7 nM) from MBP-RAMP2 ECD[L106R]-(GS)5-CLR ECD-H6 (110 nM) [I-K) panel K]
[2] = molecular target: T1, MBP-RAMP1 ECD-(GS)5-CLR ECD-H6 fusion protein (human, UniProt O60894 24-111; Q16602 29-144); test: FP (anisotropy) competition: displaces FITC-Ahx-AM(37-52)NH2[S45W,Q50W] probe (7 nM) from MBP-RAMP1 ECD-(GS)5-CLR ECD-H6 (15 nM) [I-J) lower graph]
T1 construct: range 24-111;range 29-144; Tethered ECD fusion made in E. coli; used in the FP assay at 15 nM; also called MBP-hRAMP1.24-111-(Gly-Ser)5-hCLR.29-144-H6
Protocol: (§1) Fluorescence polarization peptide binding assay. […] The reactions (50 μL) were incubated for 2 hours at room temperature to reach equilibrium, and the anisotropy was measured in black half-area 96-well plates using a BMG LABTECH's POLARstar® Omega plate reader (Ortenberg, Germany). The reaction buffer was 50 mM HEPES, pH 7.5, 150 mM NaCl, 0.5 mg/ml fatty acid-free BSA, 0.5 mM EDTA, 0.5 mM maltose. KI values were calculated using nonlinear regression fitting of the competition curves to the exact analytical equations of Roehrl et al. (Biochemistry (2004) 43:16056-66) using GraphPad Prism 5.0 (GraphPad Software, San Diego Calif.).

[3] = molecular target: T1, MBP-RAMP1 ECD-(GS)5-CLR ECD-H6 fusion …; test: FP competition vs FITC-AM W/W probe, purified ECD fusion
Protocol: as §1
(§2) The large size difference between the MBP-RAMP ECD-CLR ECD fusion proteins (˜65 kDa) and the probe (˜2.5 kDa) ensures a significant anisotropy difference between bound and free states of the probe. […] Kd values for the probe at each of the tethered ECD fusion proteins were determined in equilibrium saturation binding experiments (data not shown), and KI values were determined for unlabeled peptides in equilibrium competition experiments (Table 1; FIGS. 2-5). The data were analyzed according to exact analytical equations using non-linear regression curve fitting in GraphPad Prism 5.0 (GraphPad Software) via user-defined equations.

[4] = molecular target: MBP-RAMP2 ECD [L106R]-(GS)5-CLR ECD-H6 fusion protein (human) (UniProt O60895); test: as above
[5] = molecular target: T1, MBP-RAMP1 ECD-(GS)5-CLR ECD-H6 fusion …; test: FP (anisotropy) competition: displaces FITC-Ahx-AM(37-52)NH2[S45W,Q50W] probe (7 nM) from MBP-RAMP1 ECD-(GS)5-CLR ECD-H6 (15 nM) [F-H) panel F]
Protocol: as §1

[6] = molecular target: T1, MBP-RAMP1 ECD-(GS)5-CLR ECD-H6 fusion …; test: ratio of FP KI values at the two ECD complexes
Protocol: as §1, §2

[7] = molecular target: T1, MBP-RAMP1 ECD-(GS)5-CLR ECD-H6 fusion …; test: FP (anisotropy) competition: displaces FITC-Ahx-AM(37-52)NH2[S45W,Q50W] probe (7 nM) from MBP-RAMP1 ECD-(GS)5-CLR ECD-H6 (15 nM) [A-C) panel B]
Protocol: as §1

[8] = molecular target: MBP-RAMP2 ECD [L106R]-(GS)5-CLR ECD-H6 fusion protein (human) (UniProt O60895); test: FP (anisotropy) competition: displaces FITC-Ahx-AM(37-52)NH2[S45W,Q50W] probe (7 nM) from MBP-RAMP2 ECD[L106R]-(GS)5-CLR ECD-H6 (110 nM) [A-C) panel A]
[9] = molecular target: MBP-RAMP2 ECD [L106R]-(GS)5-CLR ECD-H6 fusion protein (human) (UniProt O60895); test: AlphaLISA competition: displaces Biotin-AM probe (25 nM) from the RAMP2-CLR ECD fusion protein (5 nM)
[10] = molecular target: T1, MBP-RAMP1 ECD-(GS)5-CLR ECD-H6 fusion …; test: AlphaLISA competition: displaces Biotin-CGRP probe (50 nM) from the RAMP1-CLR ECD fusion protein (5 nM)
Protocol: (§3) The probes were as described in Moad and Pioszak (Protein Sci. (2013) 22:1775-85). The reactions were incubated for 5 hours at room temperature to reach equilibrium, and the luminescence was measured in white 384-well plates using a BMG LABTECH's POLARstar® Omega plate reader (Ortenberg, Germany). The reaction buffer was 50 mM MOPS, pH 7.4, 150 mM NaCl, 7 mg/ml fatty acid-free BSA, and the streptavidin-coated donor beads and MBP-antibody coated acceptor beads were at 15 μg/ml each. IC₅₀ values were calculated using nonlinear regression fitting of the competition curves to a three-parameter, one-site competitive binding equation in GraphPad Prism 5.0 (GraphPad Software, San Diego Calif.).

[11] = molecular target: MBP-RAMP2 ECD [L106R]-(GS)5-CLR ECD-H6 fusion protein (human) (UniProt O60895); test: AlphaLISA competition vs Biotin-AM probe
[12] = molecular target: MBP-RAMP2 ECD [L106R]-(GS)5-CLR ECD-H6 fusion protein (human) (UniProt O60895); test: FP (anisotropy) competition: displaces FITC-Ahx-AM(37-52)NH2[S45W,Q50W] probe (7 nM) from MBP-RAMP2 ECD[L106R]-(GS)5-CLR ECD-H6 (110 nM) [A-C) panel B]
[13] = molecular target: MBP-RAMP2 ECD [L106R]-(GS)5-CLR ECD-H6 fusion protein (human) (UniProt O60895); test: ratio of FP KI values at the two ECD complexes
[14] = molecular target: T1, MBP-RAMP1 ECD-(GS)5-CLR ECD-H6 fusion …; test: FP (anisotropy) competition: displaces FITC-Ahx-AM(37-52)NH2[S45W,Q50W] probe (7 nM) from MBP-RAMP1 ECD-(GS)5-CLR ECD-H6 (15 nM) [F-H) panel G]
Protocol: as §1

[15] = molecular target: MBP-RAMP2 ECD [L106R]-(GS)5-CLR ECD-H6 fusion protein (human) (UniProt O60895); test: FP (anisotropy) competition: displaces FITC-Ahx-AM(37-52)NH2[S45W,Q50W] probe (7 nM) from MBP-RAMP2 ECD[L106R]-(GS)5-CLR ECD-H6 (110 nM) [G-H) panel G]
[16] = molecular target: T1, MBP-RAMP1 ECD-(GS)5-CLR ECD-H6 fusion …; test: FP (anisotropy) competition: displaces FITC-Ahx-AM(37-52)NH2[S45W,Q50W] probe (7 nM) from MBP-RAMP1 ECD-(GS)5-CLR ECD-H6 (15 nM) [A-C) panel C]
Protocol: as §1
as §1, with “Single representative experiments conducted with duplicate samples are shown.” for “Fluorescence polarization peptide binding assay.”, “reactions” for “reactions (50 μL)”

[17] = molecular target: T2, MBP-RAMP1 ECD-(GS)5-CTR ECD-H6 fusion protein (human, UniProt O60894 27-118; P30988 34-141, limits assumed); test: AlphaLISA competition vs Biotin-AC413 probe, purified AMY1 ECD fusion
T2 construct: extracellular domain; CTR-based proteins were produced in HEK293T cells (N-glycosylated); also called RAMP1-CTR ECD; RAMP1-CTR
Protocol: as §3, with “A single representative experiment conducted with duplicate samples is shown. […]” for “The probes were as described in Moad and Pioszak (Protein Sci. (2013) 22:1775-85).”, “BSA” for “BSA,”

[18] = molecular target: T1, MBP-RAMP1 ECD-(GS)5-CLR ECD-H6 fusion …; test: FP (anisotropy) competition: displaces FITC-Ahx-AM(37-52)NH2[S45W,Q50W] probe (7 nM) from MBP-RAMP1 ECD-(GS)5-CLR ECD-H6 (15 nM) [D-E) panel D]
Protocol: as §1
as §1, with “Single representative experiments conducted with duplicate samples are shown.” for “Fluorescence polarization peptide binding assay.”, “reactions” for “reactions (50 μL)”

[19] = molecular target: T1, MBP-RAMP1 ECD-(GS)5-CLR ECD-H6 fusion …; test: FP (anisotropy) competition: displaces FITC-Ahx-AM(37-52)NH2[S45W,Q50W] probe (7 nM) from MBP-RAMP1 ECD-(GS)5-CLR ECD-H6 (15 nM) [D-E) panel E]
Protocol: as §1
as §1, with “Single representative experiments conducted with duplicate samples are shown.” for “Fluorescence polarization peptide binding assay.”, “reactions” for “reactions (50 μL)”

[20] = molecular target: MBP-RAMP2 ECD [L106R]-(GS)5-CLR ECD-H6 fusion protein (human) (UniProt O60895); test: AlphaLISA or AlphaScreen competition assays

T1 sequence (O60894 other isoform, or with tags, fused parts or gaps limits assumed, form in doubt): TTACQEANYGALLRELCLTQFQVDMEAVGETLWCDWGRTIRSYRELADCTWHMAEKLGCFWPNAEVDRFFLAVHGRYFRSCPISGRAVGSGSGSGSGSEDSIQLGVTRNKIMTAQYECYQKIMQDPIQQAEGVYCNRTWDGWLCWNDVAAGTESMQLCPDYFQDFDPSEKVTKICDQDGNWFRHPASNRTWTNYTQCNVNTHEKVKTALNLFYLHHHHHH
Chain of MBP-RAMP2 ECD [L106R]-(GS)5-CLR ECD-H6 fusion protein (human) (O60895 other isoform, or with tags, fused parts or gaps L106R L106R): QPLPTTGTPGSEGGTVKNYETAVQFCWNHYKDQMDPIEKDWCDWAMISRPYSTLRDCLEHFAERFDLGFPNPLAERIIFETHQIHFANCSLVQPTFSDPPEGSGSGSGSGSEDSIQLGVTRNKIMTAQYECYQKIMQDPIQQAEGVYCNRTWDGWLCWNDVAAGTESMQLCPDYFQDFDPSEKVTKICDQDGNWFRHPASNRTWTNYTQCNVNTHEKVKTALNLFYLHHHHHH
T2 sequence (O60894 other isoform, or with tags, fused parts or gaps limits assumed): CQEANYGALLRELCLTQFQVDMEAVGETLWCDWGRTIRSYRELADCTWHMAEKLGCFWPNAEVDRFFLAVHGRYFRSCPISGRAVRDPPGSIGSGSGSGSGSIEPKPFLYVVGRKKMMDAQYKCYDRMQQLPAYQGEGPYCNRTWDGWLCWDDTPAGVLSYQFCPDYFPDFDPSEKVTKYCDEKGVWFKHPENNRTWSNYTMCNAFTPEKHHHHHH

Row | Binder | Ki [3] [nM] | pKI [3] | Ki [4] [nM] | pKI [4] | further results
1 | B1 |  |  |  |  | IC50 (read off the curve) [1]: 300 nM; IC50 (read off the curve) [2]: ~400 nM
2 | B2 | 65.6 | 7.18 | 1570 | 5.8 | IC50 (read off the curve) [5]: ~200 nM; Receptor Selectivity (fold, over RAMP2-CLR ECD) [6]: 24 fold
3 | B3 | 44.7 | 7.35 | 81.3 | 7.09 | IC50 (read off the curve) [7]: ~100 nM; IC50 (read off the curve) [8]: 200 nM; IC50 [9]: 20 nM; IC50 [10]: 17 nM
4 | B4 | 501 | 6.3 | 316 | 6.5 | IC50 (read off the curve) [7]: ~1000 nM; fold increase in affinity (over AM(37-52)NH2, implied) [11]: 100 fold; IC50 (read off the curve) [12]: 600 nM; IC50 [9]: 44 nM; IC50 [10]: 400 nM
5 | B5 | 10500 | 4.98 | 2140 | 5.67 | IC50 (read off the curve) [12]: 4000 nM; Receptor Selectivity (fold, over RAMP1-CLR ECD) [13]: 5 fold
6 | B6 | 0.78 | 9.11 |  |  | IC50 (read off the curve) [14]: ~10 nM
7 | B7 |  |  | 1250 | 5.9 | IC50 (read off the curve) [15]: 200 nM
8 | B8 | 1.32 | 8.88 | 2450 | 5.61 | IC50 (read off the curve) [16]: ~10 nM; IC50 [17]: 260 nM; Receptor Selectivity (fold, over RAMP2-CLR ECD) [6]: 1860 fold
9 | B9 | 6.85 | 8.16 |  |  | IC50 (read off the curve) [18]: ~30 nM
10 | B10 | < 1 | > 9 | 2750 | 5.56 | IC50 (read off the curve) [19]: ~10 nM; Receptor Selectivity (fold, over RAMP2-CLR ECD) [6]: ≥ 2750 fold
11 | B11 |  |  | 20400 | 4.69 | IC50 [9]: 5000 nM; IC50 [20]: 5000 to 15000 nM

From patent US20180141989A1 (BOARD OF REGENTS OF THE UNIVERSITY OF OKLAHOMA, published 2018)
